Measurements published in US20200289563A1 (WUXI BIOLOGICS IRELAND, published 2020).
Residue numbers refer to the chain shown, from its start. One block for each binder: values may come before it.

How the values were obtained:
human CD19 [1] = target: T1, human CD19 (human, UniProt P15391 20-556); assay: cell-based or functional assay
T1 sequence (looked up): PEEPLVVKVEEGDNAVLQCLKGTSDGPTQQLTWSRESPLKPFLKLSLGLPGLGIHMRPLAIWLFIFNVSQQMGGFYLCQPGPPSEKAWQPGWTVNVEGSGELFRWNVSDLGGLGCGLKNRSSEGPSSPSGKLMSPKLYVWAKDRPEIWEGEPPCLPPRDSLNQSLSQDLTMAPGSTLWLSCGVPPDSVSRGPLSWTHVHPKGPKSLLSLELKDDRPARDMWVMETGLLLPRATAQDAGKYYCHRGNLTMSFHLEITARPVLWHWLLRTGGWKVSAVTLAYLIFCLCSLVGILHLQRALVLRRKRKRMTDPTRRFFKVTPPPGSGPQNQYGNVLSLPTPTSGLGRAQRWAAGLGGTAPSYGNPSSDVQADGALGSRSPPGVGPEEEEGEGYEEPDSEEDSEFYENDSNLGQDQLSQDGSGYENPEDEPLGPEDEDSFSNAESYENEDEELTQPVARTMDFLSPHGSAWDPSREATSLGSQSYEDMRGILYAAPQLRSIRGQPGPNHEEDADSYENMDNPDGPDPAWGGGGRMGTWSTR

human CD19 [2] = target: T1, human CD19; assay: flow cytometry on Ramos cells
Protocol: (§1) The Ramos cells were plated in 96-well U-bottom plates (BD) at a density of 1×10⁵ cells/well. The purified antibody were serially diluted in the staining buffer (1×PBS/1% BSA) and incubated with cells for 1 hr at 4° C. The cells were then washed twice with staining buffer (BSA/1×PBS). […] The cells were then washed twice and re-suspended in 100 μL staining buffer. The fluorescence intensity was measured by flow cytometry (BD Canto II) and analyzed by FlowJo.
Binding activity of the selected subclones were tested on Ramos cell by flow cytometry (FIG. 4).

cynomolgus monkey CD19 = target: T2, cynomolgus monkey CD19 (cynomolgus monkey, UniProt A0A2K5W8L9 20-557); assay: flow cytometry on cynomolgus CD19 transfected CHO-K1 cells
T2 construct: whole, on cells; also called cyno CD19; cPro1
T2 sequence: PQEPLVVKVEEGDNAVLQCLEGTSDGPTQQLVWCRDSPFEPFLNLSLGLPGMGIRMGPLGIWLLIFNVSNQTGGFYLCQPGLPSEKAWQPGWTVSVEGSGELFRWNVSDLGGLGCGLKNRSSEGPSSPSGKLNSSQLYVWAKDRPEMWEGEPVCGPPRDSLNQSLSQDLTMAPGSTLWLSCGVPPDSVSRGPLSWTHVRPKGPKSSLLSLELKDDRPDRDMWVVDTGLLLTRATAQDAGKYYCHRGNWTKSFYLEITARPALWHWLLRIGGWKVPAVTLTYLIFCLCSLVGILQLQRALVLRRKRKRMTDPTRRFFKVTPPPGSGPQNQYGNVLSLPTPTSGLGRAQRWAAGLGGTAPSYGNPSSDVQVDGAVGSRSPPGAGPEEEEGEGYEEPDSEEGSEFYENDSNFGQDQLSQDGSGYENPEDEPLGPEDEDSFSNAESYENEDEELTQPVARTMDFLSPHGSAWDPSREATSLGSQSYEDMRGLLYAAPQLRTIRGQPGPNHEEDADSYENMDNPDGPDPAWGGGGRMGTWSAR
Protocol: as §1, with “cynomolgus CD19 transfected CHO-K1” for “Ramos”
The binding activity to cynomogus monkey CD19 of candidate antibodies was evaluated using cynomolgus monkey CD19 transfected CHO-K1 cell line (FIG. 5).

human CD19 [3] = target: T1, human CD19; assay: flow cytometry on CD19 transfected CHO-K1 cells, Scatchard analysis
Protocol: The CD19 transfected CHO-K1 cells or Ramos cells were plated in a 96-well plates (BD) at a density of 5×10⁴ cells/well. Antibodies to be tested were serially diluted in the staining buffer (1×PBS/1% BSA) and incubated with cells at 4° C. for 1 hr.
The affinity of selected candidate antibodies were tested on CD19 transfected CHO-K1 cell by flow cytometry.

human CD19 [4] = target: T1, human CD19; assay: FACS on Ramos cells, Scatchard analysis
Protocol: KD was calculated using Scatchard Analysis.

B1: WBP7011-4.100.1 (antibody, V domains shown)
VH: EVQLQQSGPELVKPGASVKMSCKASGYTFTSYVIHWVKQKPGQGLEWIGYINPYNDGAEYTEKFKGKATLTSDKSSSTAYMELSSLTSEDSTVYYCARGPYYYGGSPFDYWGQGTTLTVSS
VL: DAVMTQTPLSLPVSLGDQASISCRSSQSLENSNGNTYLNWYLQKPGQSPQLLIYRVSNRFSGVLDRFSGSGSGTDFTLKISRVEAEDLGVYFCLQVTHVPYTFGGGTKLEIK
notes: also called W7011-4.100.1
EC50 of cell viability, Fab-Zap assay on Ramos cells (internalization) (human CD19 [1]): 0.0148 nM | EC50 (human CD19 [2]): 0.17 nM | EC50 (cynomolgus monkey CD19): 0.438 nM | Kd (human CD19 [3]): 0.213 nM

B2: WBP7011-4.34.11 (antibody, V domains shown)
VH: B1 VH with S31N, I51F, A58T, T61N, G66A, T92A, R98K, G105S
VL: B1 VL
EC50 of cell viability, Fab-Zap assay on Ramos cells (internalization) (human CD19 [1]): 0.007 nM | EC50 (human CD19 [2]): 0.23 nM | EC50 (cynomolgus monkey CD19): 0.443 nM | Kd (human CD19 [3]): 0.181 nM

B3: WBP7011-4.15.10 (antibody, V domains shown)
VH: B1 VH with I34M, V37M, A58T, T61H, T92A, Y94F, Y110F
VL: B1 VL
notes: also called W7011-4.15.10
EC50 of cell viability, Fab-Zap assay on Ramos cells (internalization) (human CD19 [1]): 0.0139 nM | EC50 (human CD19 [2]): 0.31 nM | EC50 (cynomolgus monkey CD19): 0.46 nM | Kd (human CD19 [3]): 0.17 nM

B6: WBP7011_4.56.1 (antibody, V domains shown)
VH: B1 VH with S31N, A58T, T61N, K74T, E82A, T92A, A97T
VL: B1 VL
notes: also called W7011-4.56.1
EC50 of cell viability, Fab-Zap assay on Ramos cells (internalization) (human CD19 [1]): 0.0084 nM | EC50 (human CD19 [2]): 0.1 nM | EC50 (cynomolgus monkey CD19): 0.438 nM | Kd (human CD19 [3]): 0.118 nM

B9: WBP7011-4.106.3 (antibody, V domains shown)
VH: B1 VH with T30S, T61A, T78S, S84G, T92A
VL: B1 VL
notes: also called W7011-4.106.3
EC50 of cell viability, Fab-Zap assay on Ramos cells (internalization) (human CD19 [1]): 0.0136 nM | EC50 (human CD19 [2]): 0.23 nM | EC50 (cynomolgus monkey CD19): 0.496 nM | Kd (human CD19 [3]): 0.231 nM

B10: WBP7011-4.34.11-z1-m5-IgG1k (antibody, V domains shown)
VH: QVQLVQSGAEVKKPGSSVKVSCKASGYTFTDYVIHWVRQAPGQGLEWMGYFNPYNDGTEYNEKFKARVTITADKSTSTAYMELSSLRSEDTAVYYCARGPYYYGSSPFDYWGQGTTVTVSS
VL: DIVMTQTPLSLPVTPGEPASISCRSSQSLENSNHNTYINWYLQKPGQSPQLLIYRVSKRFSGVPDRFSGSGSGTDFTLKISRVEAEDVGVYYCHQVTHVPYTFGQGTKLEIK
notes: human IgG1, kappa by its name
Kd (human CD19 [4]): 0.23 nM

B11: WBP7011-4.87.6-z1-IgG1k (N-S) (antibody, V domains shown)
VH: QVQLVQSGAEVKKPGASVKVSCKASGYAFSTYWMNWVRQAPGQGLEWMGQIYPGDDDTKYSGKFKGRVTITADKSTSTAYMELSSLRSEDTAVYYCARRYFRYDYWYSDVWGQGTTVTVSS
VL: DIQMTQSPSSLSASVGDRVTITCRASQDISNYLNWYQQKPGKVPKLLIYYTSRLHSGVPSRFSGSGSGTDFTLTISSLQPEDVATYYCHQGNTLPLTFGQGTKLEIK
notes: human IgG1, kappa by its name
Kd (human CD19 [4]): 0.25 nM

B15: WBP7011-4.87.6 (antibody, V domains shown)
VH: QVQLQQSGAELVRPGSSVKISCKASGYAFSTYWMNWVKQRPGQGLEWIGQIYPGDDDTKYNGKFKGKASLTADKSSSTAYMQLISLTSEDSAVYFCARRYFRYDYWYSDVWGAGTTVTVTS
VL: DIQMTQTTSSLSASLGDRVTISCRASQDISNYLNWYQQKPDGTVKLLIYYTSRLHSGVPARFSGSGSGTDYSLTISNLEQEDIATYFCHQGNTLPLTFGAGTKLELK
EC50 of cell viability, Fab-Zap assay on Ramos cells (internalization) (human CD19 [1]): 0.0085 nM | EC50 (human CD19 [2]): 0.1 nM | EC50 (cynomolgus monkey CD19): 0.285 nM | Kd (human CD19 [3]): 0.0955 nM

Continued, in another order:

EC50 (human CD19 [2]): 0.12 nM | EC50 (cynomolgus monkey CD19): 0.628 nM | Kd (human CD19 [3]): 0.17 nM
B4: WBP7011_4.231.5 (antibody, V domains shown)
VH: B1 VH with I34M, A58T, E59Q, T61N, T92A, G104S, G105P
VL: B1 VL
notes: also called W7011-4.231.5
EC50 of cell viability, Fab-Zap assay on Ramos cells (internalization) (human CD19 [1]): 0.0085 nM

EC50 (human CD19 [2]): 0.15 nM | EC50 (cynomolgus monkey CD19): 0.996 nM | Kd (human CD19 [3]): 0.42 nM
B5: WBP7011_4.194.10 (antibody, V domains shown)
VH: B1 VH with I34M, A58T, E59K, T61N, T92A, G105S
VL: B1 VL with S28T, A85T
notes: also called W7011-4.194.10
EC50 of cell viability, Fab-Zap assay on Ramos cells (internalization) (human CD19 [1]): 0.0117 nM

EC50 (human CD19 [2]): 0.07 nM
B7: WBP7011_4.191.6 (antibody, mouse IgG1, V domains shown)
VH: B1 VH with Q5L, S31D, K40R, A58S, T61S, T92A
VL: B1 VL
notes: Mouse monoclonal from hybridoma; isotype printed only for the sister subclone 4.191.3 (mouse IgG1, kappa); also called W7011-4.191.6
EC50 of cell viability, Fab-Zap assay on Ramos cells (internalization) (human CD19 [1]): 0.0191 nM

EC50 (human CD19 [2]): 0.19 nM | EC50 (cynomolgus monkey CD19): 0.863 nM | Kd (human CD19 [3]): 0.252 nM
B8: WBP7011_4.108.3 (antibody, V domains shown)
VH: B1 VH with K19E, V37L, T61N, E82D, S84N, T92A, G105S
VL: B1 VL
notes: also called W7011-4.108.3
EC50 of cell viability, Fab-Zap assay on Ramos cells (internalization) (human CD19 [1]): 0.0206 nM

EC50 (human CD19 [2]): 0.85 nM | EC50 (cynomolgus monkey CD19): 1.54 nM | Kd (human CD19 [3]): 0.949 nM
B12: WBP7011_4.155.8 (antibody, V domains shown)
VH: EIQLQQSGPELVKPGASVKVSCKASGYAFTSYNMYWVKQSHGKSLEWIGYIDPYNGDTTYNQKFKGKATLTVDKSSSTAYMHLNSLTSEDSAVYYCLTTAYAMDYWGQGTSVTVSS
VL: QIVLTQSPAIMSASLGEEITLTCSASSTVNYMHWYQQKSGTSPKLLIYSTSNLASGVPSRFSGSGSGTFYSLTIRSVEAEDAADYYCHQWSSYPYTFGGGTKLEIK
EC50 of cell viability, Fab-Zap assay on Ramos cells (internalization) (human CD19 [1]): 0.0276 nM

EC50 (human CD19 [2]): 0.45 nM | EC50 (cynomolgus monkey CD19): 1.77 nM | Kd (human CD19 [3]): 0.735 nM
B13: WBP7011_4.225.7 (antibody, mouse IgG2a, V domains shown)
VH: B12 VH
VL: B12 VL
notes: also called W7011-4.225.7
EC50 of cell viability, Fab-Zap assay on Ramos cells (internalization) (human CD19 [1]): 0.015 nM

EC50 (human CD19 [2]): 0.64 nM | EC50 (cynomolgus monkey CD19): 2.3 nM | Kd (human CD19 [3]): 0.847 nM
B14: WBP7011_4.202.9 (antibody, mouse IgG2a, V domains shown)
VH: B12 VH
VL: B12 VL
notes: also called W7011-4.202.9
EC50 of cell viability, Fab-Zap assay on Ramos cells (internalization) (human CD19 [1]): 0.0236 nM
